Results taken from the nanobody polyreactivity screen of Harvey et al. (2022).

Test: yeast display, Sf9 membrane polyspecificity reagent, FACS + sequencing; frameworks hold sequencing errors
Method in brief: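 In a synthetic yeast display library (Saccharomyces cerevisiae BJ5465), nanobody expression was induced with galactose for 36–48 hours. FACS gates were set low and high (top ~1%) using anti-HA fluorescence for expression and streptavidin fluorescence for binding of the Sf9 membrane reagent. Each polyreactivity label is drawn from the gate of origin.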

| Sequence | polyreactivity (PSR sort gate) |
| --- | --- |
| QVQLVESGGGLVQAGGSLRLSCAASGSIFFYYAMGWYRQAPGKERELVAAINSDGSTNYADSVKGRFTISRDNAKNTVYLQMNSVKPEDTAVYYCAADYVYYYHEYDYWGQGTQVTVSS | low polyreactivity |
| QVQLVESWGRLVQAGGSLRLTCAASGFIFSSYAMGWYRQAPGKERELVAAISQSGGRTYYADSVKGRFTISRDNAKNTVYLQMNSLKPEDTAVYYCNTLYTIGAVYYWGQGTQVTVSS | high polyreactivity |
| QVQLVESGGGLVQAGGSLRLSCAASGFTFPLNAMGWYRQAPGKERELVAAISGSGGSTYYADSVKGRFTISRDNAKNTVYLQMNSLKPEDTAVYYCAAGIYYWGQGTQVTVSS | low polyreactivity |
| QVQLVESGGGLVQAGGSLRLSCAASGITFPGNAMGWYRQAPGKERELVAGISDGDSTNYADSVKARFTISRDNAKNTVYLQMNSLKPEDTAVYYCARDTELYVRWLDYWGQGTQVTVSS | low polyreactivity |
| QVQLVESGGGLVQAGGSLRLSCAASGLIIWLYTMGWYRQAPGKERELVAAIDWSGGSTYYADSVKGRFTISRDNAKNTVYLQMNSLKPEDTAVYYCAADPEPSYRFDYWGQGTQVTVSS | low polyreactivity |
| QVQLVESGGGLVQAGGSLRLSCAASGRIFRAYAMGWYRQAPGKERELVADIRGGGSTNYADSVKGRFTISRDNAKNTVYLQMNSLKPEDTAVYYCNAAAYRGMRQGPRYYYWGQGTQVTVSS | high polyreactivity |
| QVQLVESGGGLVQAGGSLRLSCAASGGTFKLYAMGWYRQAPGKERELVAAISRRGGSTYYADSVKGRFTISRDNAKNTVYLQMNSLKPEDTAVYYCAAPGPTQSTQRGGYWGQGTQVTVSS | high polyreactivity |
| QVQLVESGGGLVQAGGSLRLSCAASGSTFPFYDMGWYRQAPGKERELVAAIRSGGSTYADSVKGRFTISRDNAKNTVYLQMNSLKPEDTAVYYCAKRCPSNRYSRYRVKYDYWGQGSQVTVSS | low polyreactivity |
| QVQLVESGGGLVQAGGSLRLSCAASGSTFRYYALGWYRQAPGKERELVAAISTSGGRTYYADSVKGRFTISRDNAKNTVYLQMNSLKPEDTAVYYCNARESRGYAYQTWKYYYWGQGTQVTVSS | high polyreactivity |
| QVQLVESGGGLVQAGGSLRLSCAAFGPIFQYYAMGSYRQAPGKERELVAAITRSGGSTYYADSVKGRFTISRDNAKNTVYLQMNSLKPEDTAVYYCAAYSRYTVREGYDYWGQGTQVTVSS | high polyreactivity |
| QVQLVDSGGGLVQAGGSLRLSCAASGRTFGKNVMGWYREAPGKERELVAAISLSGGSTYYADSVKGRFTISRDNAKNTVYLQMNSLKPEDTAVYYCAAAAYGKPWGLDYWGQGTQVTVSS | low polyreactivity |
| QVQLVESGGGLVQAGGSLRLSCAASGSTFPFYAMGWYRQAPGKERELVAAITSGGSTYADSVKGRFTISRDNAKNTVYLQMNSLKPEDTAVYYCAASWPRWWRFGYWGQGTQVTVSS | low polyreactivity |
| QLQHVESGGGLVQAGGSLRLSCADSGFILYLNAMGWYRQAPGKERELVATITNRGGSTYYADTVKGRFTISRDNAKNTVYLQMNSLKPEDTAVYYCAARTRERYSKPYFYRRFGYWGQGTQVTVSS | low polyreactivity |
| QVQLVESGGGLVQAGGSLRLSCAASGRIFPGYAMGWYRQAPGKERELVAAISTNGGRTYYADSVKGRFTISRDNAKNTVYLQMNSLKPEDTADYYCAAESAYDAYDYWGQGTQVTVSS | high polyreactivity |
| QVQLLESGGGLVQAGGSLRLSCAASGLIMVYYTMGWYRQAPGKERELVASISKSGGRTYYADSVKGRFTISRDNAKNTVYLQMNSLKPEDTAVYYCAAQRVQYSRRDYWGQGTQVTVSS | high polyreactivity |
| QVQLVESGGGLVQAGGSLRLSCAASGRIFSTNAMGWYRQAPGKERELVATIRTSGGSTYYADSVKGRFTISRDNAKNTVYLQMNSLKPEDTAVYYCAARRFLHYTTYYGTGRYDYWGQGTQVTVSS | low polyreactivity |
| QVQLVESGGGLVQAGGSLRLSCGASGRIFATNAMGWYRQAPGKERELVATITRSAGRTYYADSVKGRFTISRDNAKNTVYLQMNSLIPEDTAVYYCAASYLDSEPGYREYDYWGQGTQVTVSS | low polyreactivity |
| QVQLVESGGGLVQAGGSLRLSCAASGNTLAYYDMGWYRQAPGKESELVAAITSGGTTNYADSVKGRFTISRDNAKNTVYLQMNSLKPEDTAVYYSAALGIGSSRRFSGYVYWGQGTQVTVSS | low polyreactivity |
| QVQLVESGGGLVQAGGSLRLSCAASGSTFTYYAMGWYRQAPGKERELVASINWSGGSTRYADSVKGRFTISRDNAKNTVYLQMNSLKPEDTAVYYCAARKSPRSQVRGRSYYWGQGTQVTVSS | high polyreactivity |
| QVQLVESGGGLDQAGGCLRLSCAASGSIFRTYAMGWYRQAPGKERELVADITRRGGSTYYADSVKGRFTISRDNAKYTVNLQLNSLKPEETAVYYCAAYGYTSAGDSARLDYWGQGSQVTVSS | high polyreactivity |
| QVQLVESGGLLVQAGGSIRITCAASGSTLWFNAMGWYRQAPGKERELVAAINWSGGSTYYADSVKGRFSISRDNAKITVYVQMTSLKPEDTAVYYCAAFYQYVHYVWYDYWGQGSQVTVSS | low polyreactivity |
| QVQLVESGGGLVQAGGSLRFSCAACGMTIWYYGMGSYRQAPGKERELLAAISKTGGRTYDADSVKGRFTISRDNAKNTVYLQMNRLKPEDTAVYNCNARYLLVSRYWENDYWGQATQVTVSS | low polyreactivity |

| Sequence | polyreactivity (PSR sort gate) |
| --- | --- |
| QVQLVESGGGLVQAGGSLRLSCAASGSIFFDNAMGWYRQAPGKERELVATINSGGNTHYADSVKGRFTISRDNAKNTVYLQMNSLKPEDTAVYYCAADFPSDLVDGYNYWGQGTQVTVSS | low polyreactivity |
| QVQLVESGGGLVQAGGSLRLSCAASGSTSPNAMGWYRQAPGKERELVAAIWSGGTYYADSVKGRFTISRDNAKNTVYLQLNSLKPEDTAVYYCAVTGVYRGFRYGYLGQGTQVTVSS | low polyreactivity |
| QVQLVESGGGLVQAGGSLRLSCAASGLISYHYAMGWYRQAPGKERELVASISYTGGSTFYADSVKGRFTISRDNAKNTVYFQMNSLKPEDTAVYYCAAYRIWRPSYYYWGQGTQVTVSS | high polyreactivity |
| QVQLVESGGGLVQAGGSLRLSCAASGSTFSHYTMGWSRQAPGKERELVAAINYGGASTYYADSVKGRFTISRDNAKNTVFLHMNSLKPEDTSVYYCAAANRPSEQDNYWGQGTQVTVSS | low polyreactivity |
| QVQLVESGGGLVQAGGSLRLSCAASGSTFVNNAMGWYRQAPGKERELVAAIRSSDGRTYYADSVKGRFTISRDNAKNTVYLLMNSLKPEDTAGYYCNAGYWRFIDSYDYWGQGTQVTVSS | high polyreactivity |
| QVQLVESGGGLLQAGGSLRLICAASGFIFVTYAMGLYRQEPGKERELVAAITNSGGTTYYADSVKGRFTISRDNAKNTVYLQMNSLKPEDTAGYYCNKPYGAETAHREFDYWGQGTQVTVSS | low polyreactivity |
| QVQLVESGGGLVQAGGSLRLSCAASGSILSGYAMVWYRQAPGTERELVAAITSGGDTNYADSVKGRFTISRDNAKNTVYLQMNSLKPEETAVYYCAADPSYLGLFGYDYWGQGTQVTVSS | low polyreactivity |
| QVQLVESGGGLVQAGGSLRLSCAASGRIFKVYAMGWYRQAPGKERELVAAISSRGGSTYYADSVKGRFTISRDNAKNTVYLQMNSLKPEDTAVYYCAALVTWLHPKGDYWGQGTQVTVSS | high polyreactivity |
| QVQLVESGGGLVQAGGSLRLSCAASGRTFGPNGMGWYRQAPGKERELVAAITRRGGSTYYADSVKGRFTISRDNEKNTVYLQMNSLKPEDTAVYYCAAYSSWGGFDYWGQGTQVTVSS | low polyreactivity |
| QVQLVESGGGLVQAGGSLRLSCAASGSIFGRNAKGSYRQAPGKERELVAAITVSGGRTYYADSVKGRFTISRDNAKNTVYLQMNSLKPEDTAVYYCNKYPVYRAVYGGGYEYWGQGTQVTVSS | high polyreactivity |
| QVQLVESGGGLVQAGGSLRLSCAASGLIFTPYAMGWYRQAPGKERELVAAINYGGSRTYYADSVKGRFTISRDNAKNTVYLQMNSLKPEDTAVYYCNVVKRSFRYDYWGEGTQVTVSS | high polyreactivity |
| QVQLVESGGGLVQAGGSLRLSCAASGFTFGYYAMGWYRQAPGKERELVAAISRSGGRTYYADSVKGRFTISRDNAKNTVYLEMNSLKPEDTAVYYCNAVIHGWTLDYEYWGQGTQVTVSS | high polyreactivity |
| QVQLVESGGGLVQAGGSLRLSCAASGSIFGYYVMGWYRQAPGKERELVAAITKSGGSTYYADSVKGRFTISRDNAKNTVYLQKNSLKPEDTAVYYCAKRFYSTGYGRFDYWGQGTQVTVSS | high polyreactivity |
| QVQLVESGGGLVQAGGSLRLSCAASGFTFRRYAMGWYRQAPGKERELVAAISRRGVTTYYADSVKGRFTISRDNAKNTVYLQMISLKPEDTAVYYCAADHNPSIGDDSWGQGTQVTVSS | high polyreactivity |
| QVQLVESGGGLVQAGGSLRLSCAASGSIFRGYGMGWYRQAPGKERELVAAITSGDSTNYADSVKARFTLSRDNAKTTVYLQMNSLKPEDTAVNYCAAASTGRPSVSYDYWGQGTQVTVSS | low polyreactivity |
| QVQLVESGGGLVQAGGSLRLSCAASGLTFVIYAMGWYRQAPGKERELVARITWSGGSTYYADSVKGRFTISRDNAKNTVYLQMNSLKPEETAVDYCAARRFYYYNAGYDSWGQGTQVTVSS | low polyreactivity |
| QVQLVESGGGLVQAGGSLRLSSAASGIIFRDNAMGWYRQAPGKERELVAAIDSSGGTTYADSVKGRFTISRDNAKNTVYLQMNSLKPEDTAVYYCATEVYWTVSYYGYDYYGGNYYYWGQGTQVTVSS | low polyreactivity |
| QVQLVESGGGLVQAGGSLRLSCAASGSIFSKNAIGWYRQAPGKERELVATISRSGGSTYYADSVKGRFTISRDNAKNTVYLQMNSLKPDDSAVYYCNRDTRYYWKRYGYWGQGTQVTVSS | high polyreactivity |
| QVQLVESGGGLVQAGGSLRLICAASGIIFFRYAMGWYRQAPGKERELVASIRAIGGSTSYADSVKGRFTISRDNAKNTVYLQMNSLKPEDTAVFYCAARQNYRYGYWGQGTQVTVSS | high polyreactivity |
| QVQLVESGGGLVQAGGSLRLSCAASGITLRLYAMGWYRQAPGKERELVAAISKRGGSTYYADSVKWRFTISRDNAKNTVYLQMNSQKPEDTAVYYCAADSGWEHRYDYWGQGTQVTVSS | high polyreactivity |
| QVQLVESGGGLVQAGGSLRLICAASGRIFSKNAMGWYRQAPGKEREFVAAISRIGGRTYYADSVKGRFTISRDNAKNTVYFQMNSLKPEDTAVYYCATVHYGYTTSYDYWGQGTQVTVSS | high polyreactivity |
